# Where no end group is shown, it is not given here.
# B1: SD5-59 (protein)
# chain: MAVSESQLKKMVSKYKYRDLTVRETVNVITLYKDLKPVLDSYVFNDGSSRELMNLTGTIPVPYRGNTYNIPICLWLLDTYPYNPPICFVKPTSSMTIKTGKHVDANGKIYLPYLHEWKHPQSDLLGLIQVMIVVFGDEPPVFSRPISASYPPYQATGPPNTSYMPGMPGGISPYPSGYPPNPSGYPGCPYPPGGPYPATTSSQYPSQPPVTTVGPSRDGTISEDTIRASLISAVSDKLRWRMKEEMDRAQAELNALKRTEEDLKKGHQKLEEMVTRLDQEVAEVDKNIELLKKKDEELSSALEKMENQSENNDIDEVIIPTAPLYKQILNLYAEENAIEDTIFYLGEGGVIDLDVFLKHVRLLSRKQFQLRALMQKARKTAGLSDLY
# modifications: left off: small tags and cut ends
# B2: pIND-h-Tsg101-FLAG: wild-type human Tsg101, FLAG-tagged, inducibly over-expressed from plasmid (protein)
# chain: MAVSESQLKKMVSKYKYRDLTVRETVNVITLYKDLKPVLDSYVFNDGSSRELMNLTGTIPVPYRGNTYNIPICLWLLDTYPYNPPICFVKPTSSMTIKTGKHVDANGKIYLPYLHEWKHPQSDLLGLIQVMIVVFGDEPPVFSRPISASYPPYQATGPPNTSYMPGMPGGISPYPSGYPPNPSGYPGCPYPPGGPYPATTSSQYPSQPPVTTVGPSRDGTISEDTIRASLISAVSDKLRWRMKEEMDRAQAELNALKRTEEDLKKGHQKLEEMVTRLDQEVAEVDKNIELLKKKDEELSSALEKMENQSENNDIDEVIIPTAPLYKQILNLYAEENAIEDTIFYLGEALRRGVIDLDVFLKHVRLLSRKQFQLRALMQKARKTAGLSDLY
# modifications: left off: small tags and cut ends
# notes: wild-type human Tsg101, FLAG-tagged, inducibly over-expressed from plasmid
# How the values were obtained:
# [1] = biological target: GAL4 DNA-binding domain-p1-p6 fusion protein (yeast; HIV-1) (UniProt P04386); experiment: cell-based or functional assay
# [2] = biological target: GAL4 activation domain-Tsg101 fusion protein (wild-type human Tsg101) (yeast; human) (UniProt Q99816); experiment: cell-based or functional assay
# [3] = Solubility of the peptide; assay type: physicochemical; details: precluded testing at higher concentrations
# HIV-1 particles = experiment: Release of HIV-1 virus-like particles from transfected COS-1 cells, Western blot with anti-CA; assay type: cell-based
# HIV-1 Gag = assay type: cell-based
molecule,measurement,setting,value
GAL4 activation domain-Tsg101 Y110W (from UniProt P04386 768-881),"2-hybrid assay, percent of wild-type interaction (% of wild-type)",[1],31
GAL4 DNA-binding domain-p1-p6 with both PTAPP motifs deleted (from UniProt P04386 1-147; P03347 435-512),β-galactosidase activity (yeast 2-hybrid),[2],< 0.3%
GAL4 DNA-binding domain-p1-p6 with the second PTAPP motif deleted (from UniProt P04386 1-147; P03347 435-512),β-galactosidase activity (yeast 2-hybrid) (% of wild-type),[2],25
ALQSRPEPTAPPEES,solubility of the peptide,[3],limited solubility
GAL4 activation domain-Tsg101 Y113V (from UniProt P04386 768-881),"2-hybrid assay, percent of wild-type interaction (% of wild-type)",[1],33
GAL4 DNA-binding domain-p1-p6 with the first PTAPP motif deleted (from UniProt P04386 1-147; P03347 435-512),β-galactosidase activity (yeast 2-hybrid) (% of wild-type),[2],50
"CC(C)CC[C@@H](O)[C@](C)(O)[C@H]1CC[C@@]2(O)C3=CC(=O)[C@@H]4C[C@@H](O)[C@@H](O)C[C@]4(C)[C@H]3CC[C@]12C [pa, pronasterone, reference compound]",effect on virus particle release,HIV-1 particles,no inhibitory effect
GAL4 activation domain-Tsg101 with Ala for Thr67-Tyr68-Asn69 (from UniProt P04386 768-881),"2-hybrid assay, percent of wild-type interaction (% of wild-type)",[1],5
GAL4 DNA-binding domain-p1-p6 with the (LXX)4 repeat motif deleted (from UniProt P04386 1-147; P03347 435-512),β-galactosidase activity (yeast 2-hybrid) (% of wild-type),[2],55
GAL4 DNA-binding domain-p1-p6 with the first PTAPP motif deleted and Ala for Pro7 in the second motif (from UniProt P04386 1-147; P03347 435-512),"enzyme activity (β-galactosidase, yeast 2-hybrid) (% of wild-type)",[2],25
B1,Gag processing in released particles,"HIV-1 particles; COS cells, wild-type gag, 1 and 5 μM pa",accumulation of particle-associated uncleaved Gag precursor
same,release of virus particles,"HIV-1 particles; COS cells, wild-type gag, increasing expression with 1 and 5 μM pa",permitted release of virus particles
same,viral protein in P1 fraction,HIV-1 Gag,no protein was found
same,viral protein in S1 fraction,HIV-1 Gag,detectable levels of viral protein
B2,release of immature particles containing GagΔp6,"HIV-1 particles; COS-1 cells, gagΔp6, Tsg101 overexpression, 0, 1, 5 μM pa",not significantly affected
same,"amount of mature CA in released virus, of the control (0 μM pa) level","HIV-1 particles; COS-1 cells, wild-type gag, 1 μM pa inducer",~60%
same,"amount of mature CA in released virus, of the control (0 μM pa) level","HIV-1 particles; COS-1 cells, wild-type gag, 5 μM pa inducer",~30%
same,viral protein in P1 fraction,HIV-1 Gag,no detectable viral protein
same,viral protein in S1 fraction,HIV-1 Gag,no detectable viral protein
